Measurements: patent US8840891 (RSR, dated 2014)
Where two headings read alike, the source gives them in different places.

Columns and labels:
Test in all cases: cell-based or functional assay
[1] = biological target: TSHR with Glu251 mutated to Alanine expressed on CHO cells (human) (UniProt P16473)
[2] = biological target: wild type human TSHR (thyrotropin receptor) expressed on CHO cells (human) (UniProt P16473)
[3] = biological target: TSHR with Thr257 mutated to Alanine expressed on CHO cells (human) (UniProt P16473)
[4] = biological target: wild type human TSHR (thyrotropin receptor) expressed on CHO cells (human) (UniProt P16473); remark: listed apart in the source
[5] = biological target: TSHR with activating mutation I568T expressed on CHO cells (human) (UniProt P16473)
[6] = biological target: TSHR with activating mutation A623I expressed on CHO cells (human) (UniProt P16473)
[7] = biological target: TSHR with Asp43 mutated to Alanine expressed on CHO cells (human) (UniProt P16473)
[8] = biological target: human TSHR (wild type) expressed in CHO cells (human) (UniProt P16473)

B1: 5C9 IgG (human monoclonal autoantibody to the TSHR) (antibody, from another filing, V domains shown)
VH: EVQLVESGGGLIQPGGSLRLSCAASGFTVSSNYMSWVRQAPGKGLEWVSVTYSGGSTSYADSVKGRFTISRDNSKNTLYLQMNSLRAEDTAVYYCARGGRYCSSISCYARSGCDYWGQGTLVTVSS
VL: AIQMTQSPSSLSASVGDRVTITCRASQSISNYLNWYQQKPGKAPKLLIYAASSLQSGVPSRFSGSGSGTDFTLTISSLQPEDFATYYCQQSYSSPSTTFGQGTKLEIK
[1]
  Cyclic AMP produced; 5C9 0.01 µg/mL + TSH (fmol/cell well): 22000
  Cyclic AMP produced; 5C9 0.1 µg/mL + TSH (fmol/cell well): 15500
  Cyclic AMP produced; 5C9 1.0 µg/mL + TSH (fmol/cell well): 5240
  Cyclic AMP produced; 5C9 10 µg/mL + TSH (fmol/cell well): 1880
  Cyclic AMP produced; 5C9 100 µg/mL + TSH (fmol/cell well): 1170
  Cyclic AMP produced; 5C9 100 µg/mL only (fmol/cell well): 406
  Mutated/wild type (%); 5C9 0.01 µg/mL + TSH: 104%
  Mutated/wild type (%); 5C9 0.1 µg/mL + TSH: 180%
  Mutated/wild type (%); 5C9 1.0 µg/mL + TSH: 573%
  Mutated/wild type (%); 5C9 10 µg/mL + TSH: 250%
  Mutated/wild type (%); 5C9 100 µg/mL + TSH: 236%
  Mutated/wild type (%); 5C9 100 µg/mL only: 88%
[2]
  Cyclic AMP produced; 5C9 0.01 µg/mL + TSH (fmol/cell well): 21200
  Cyclic AMP produced; 5C9 0.1 µg/mL + TSH (fmol/cell well): 8640
  Cyclic AMP produced; 5C9 1.0 µg/mL + TSH (fmol/cell well): 915
  Cyclic AMP produced; 5C9 10 µg/mL + TSH (fmol/cell well): 752
  Cyclic AMP produced; 5C9 100 µg/mL + TSH (fmol/cell well): 496
  Cyclic AMP produced; 5C9 100 µg/mL only (fmol/cell well): 460
[3]
  Cyclic AMP produced; 5C9 0.01 µg/mL + TSH (fmol/cell well): 21100
  Cyclic AMP produced; 5C9 0.1 µg/mL + TSH (fmol/cell well): 7940
  Cyclic AMP produced; 5C9 1.0 µg/mL + TSH (fmol/cell well): 1590
  Cyclic AMP produced; 5C9 10 µg/mL + TSH (fmol/cell well): 972
  Cyclic AMP produced; 5C9 100 µg/mL + TSH (fmol/cell well): 611
  Cyclic AMP produced; 5C9 100 µg/mL only (fmol/cell well): 637
  Mutated/wild type (%); 5C9 0.01 µg/mL + TSH: 113%
  Mutated/wild type (%); 5C9 0.1 µg/mL + TSH: 129%
  Mutated/wild type (%); 5C9 1.0 µg/mL + TSH: 114%
  Mutated/wild type (%); 5C9 10 µg/mL + TSH: 152%
  Mutated/wild type (%); 5C9 100 µg/mL + TSH: 103%
  Mutated/wild type (%); 5C9 100 µg/mL only: 111%
[4]
  Cyclic AMP produced; 5C9 0.01 µg/mL + TSH (fmol/cell well): 18700
  Cyclic AMP produced; 5C9 0.1 µg/mL + TSH (fmol/cell well): 6140
  Cyclic AMP produced; 5C9 1.0 µg/mL + TSH (fmol/cell well): 1400
  Cyclic AMP produced; 5C9 10 µg/mL + TSH (fmol/cell well): 638
  Cyclic AMP produced; 5C9 100 µg/mL + TSH (fmol/cell well): 591
  Cyclic AMP produced; 5C9 100 µg/mL only (fmol/cell well): 566
[5]
  Cyclic AMP concentration (basal) in the presence of 5C9 IgG (1 µg/mL) (fmol/cell well): 548
[6]
  Cyclic AMP concentration (basal) in the presence of 5C9 IgG (1 µg/mL) (fmol/cell well): 1910
  inhibition of basal cyclic AMP activity; 5C9 IgG at 1 µg/mL: 49%
[7]
  Cyclic AMP produced; 5C9 0.01 µg/mL + TSH (fmol/cell well): 12700
  Cyclic AMP produced; 5C9 0.1 µg/mL + TSH (fmol/cell well): 6730
  Cyclic AMP produced; 5C9 1.0 µg/mL + TSH (fmol/cell well): 471
  Cyclic AMP produced; 5C9 10 µg/mL + TSH (fmol/cell well): 119
  Cyclic AMP produced; 5C9 100 µg/mL + TSH (fmol/cell well): 31
  Cyclic AMP produced; 5C9 100 µg/mL only (fmol/cell well): 206
  Mutated/wild type (%); 5C9 0.01 µg/mL + TSH: 97%
  Mutated/wild type (%); 5C9 0.1 µg/mL + TSH: 86%
  Mutated/wild type (%); 5C9 1.0 µg/mL + TSH: 23%
  Mutated/wild type (%); 5C9 10 µg/mL + TSH: 39%
  Mutated/wild type (%); 5C9 100 µg/mL + TSH: 37%
  Mutated/wild type (%); 5C9 100 µg/mL only: 438%
[8]
  % inhibition of TSH stimulation of cyclic AMP; 5C9 IgG 1 µg/mL; wild type in the Asp151Ala experiment: 88%
  % inhibition of TSH stimulation of cyclic AMP; 5C9 IgG 1 µg/mL; wild type in the Lys183Ala experiment: 84%
  % inhibition of TSH stimulation of cyclic AMP; 5C9 IgG 100 µg/mL; wild type in the Lys183Ala experiment: 93%
  activity in blocking TSH stimulation of cyclic AMP, relative to donor serum IgG: 3900 times
  basal cyclic AMP level relative to cyclic AMP assay buffer; 5C9 IgG 1 µg/mL; CHO cells with approximately 5x10^5 wild type TSHRs per cell: 33%
  cyclic AMP production; 5C9 IgG 0.001 µg/mL + M22 Fab 3 ng/mL (fmol/cell well): 11600
  cyclic AMP production; 5C9 IgG 0.001 µg/mL + pTSH 3 ng/mL (fmol/cell well): 14100
  cyclic AMP production; 5C9 IgG 0.001 µg/mL only (fmol/cell well): 554
  cyclic AMP production; 5C9 IgG 0.01 µg/mL + M22 Fab 3 ng/mL (fmol/cell well): 9980
  cyclic AMP production; 5C9 IgG 0.01 µg/mL + pTSH 3 ng/mL (fmol/cell well): 15000
  cyclic AMP production; 5C9 IgG 0.01 µg/mL only (fmol/cell well): 578
  cyclic AMP production; 5C9 IgG 0.1 µg/mL + M22 Fab 3 ng/mL (fmol/cell well): 1300
  cyclic AMP production; 5C9 IgG 0.1 µg/mL + pTSH 3 ng/mL (fmol/cell well): 3920
  cyclic AMP production; 5C9 IgG 0.1 µg/mL only (fmol/cell well): 404
  cyclic AMP production; 5C9 IgG 1 µg/mL + M22 Fab 3 ng/mL (fmol/cell well): 956
  cyclic AMP production; 5C9 IgG 1 µg/mL + pTSH 3 ng/mL (fmol/cell well): 1870
  cyclic AMP production; 5C9 IgG 1 µg/mL only (fmol/cell well): 376
  cyclic AMP production; 5C9 IgG 10 µg/mL + M22 Fab 3 ng/mL; mean of duplicate samples (fmol/cell well): 638
